Assay results taken from US20130078188.

Tests used:
[1] = system: Cy7-NH-e9-c(S-Peg12)oPLGC(Me)AG-r9-c(Cy5)-CONH2 (20, RACPPPLGC(Me)AG)
[2] = system: Cy7-NH-e9-c(S-Peg12) oDPRSFL-r9-c(Cy5)-CONH2 (5, RACPPDPRSFL)
[3] = system: Cy7-NH-e9-c(S-Peg12) oPPRSFL-r9-c(Cy5)-CONH2 (10, RACPPPPRSFL)
Cy7-NH-e9-c(S-Peg12) oPPRSFL-r9-c(Cy5)-CONH2 (10, RACPPPPRSFL), sequence (chain, as listed by the source): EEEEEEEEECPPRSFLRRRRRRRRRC

Cy7-NH-e9-c(S-Peg12) oDPRSFL-r9-c(Cy5)-CONH2 (5, RACPPDPRSFL), sequence (chain, as listed by the source): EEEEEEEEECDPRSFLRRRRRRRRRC
MMP-9, sequence (chain, as listed by the source): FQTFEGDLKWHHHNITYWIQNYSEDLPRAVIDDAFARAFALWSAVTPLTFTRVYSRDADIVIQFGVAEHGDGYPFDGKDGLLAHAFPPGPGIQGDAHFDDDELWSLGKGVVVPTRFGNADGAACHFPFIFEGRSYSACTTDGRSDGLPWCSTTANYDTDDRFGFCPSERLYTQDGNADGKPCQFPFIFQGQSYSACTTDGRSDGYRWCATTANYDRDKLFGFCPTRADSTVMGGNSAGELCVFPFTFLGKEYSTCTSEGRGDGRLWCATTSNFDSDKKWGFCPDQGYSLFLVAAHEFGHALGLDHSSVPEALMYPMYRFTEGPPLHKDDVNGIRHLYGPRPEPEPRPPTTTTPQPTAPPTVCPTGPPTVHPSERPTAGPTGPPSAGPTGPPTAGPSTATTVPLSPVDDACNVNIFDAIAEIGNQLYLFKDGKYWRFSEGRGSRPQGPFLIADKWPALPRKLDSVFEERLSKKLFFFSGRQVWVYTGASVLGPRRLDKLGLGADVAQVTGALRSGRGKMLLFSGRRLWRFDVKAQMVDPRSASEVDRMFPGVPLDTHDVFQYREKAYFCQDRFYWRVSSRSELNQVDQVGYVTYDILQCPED
RACPP1, sequence (chain, as listed by the source): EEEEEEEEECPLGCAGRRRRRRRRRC
RACPP2, sequence (chain, as listed by the source): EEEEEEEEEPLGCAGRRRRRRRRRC

| Substance | decrease in Cy7 re-emission on cleavage, in mouse plasma (RACPP1) | extent of cleavage (RACPP1) | increase in Cy5 emission on cleavage, in mouse plasma (RACPP1) | increase in the ratio of 670/780 nm emissions on cleavage (RACPP1) | fraction of peptide cleaved, HPLC (FRET-ACPP 2) | increase of the Cy5 peak, extrapolated to 100% cleavage (FRET-ACPP 2) | peptide cleavage, tricine SDS-PAGE with Cy5 and Cy7 imaging (RACPP2) | peptide cleavage, SDS-PAGE with Cy5/Cy7 ratio imaging [1] | kcat/Km [2] | kcat/Km (cleavage activity) [3] | peptide cleavage, SDS-PAGE with Cy5/Cy7 ratio imaging [2] | change in Cy5/Cy7 emission ratio on cleavage, in plasma [3] | decrease in Cy7 re-emission on cleavage, in plasma [3] | increase in Cy5 emission on cleavage, in plasma [3] | kcat/Km [3] [M⁻¹ s⁻¹] | peptide cleavage, SDS-PAGE with Cy5/Cy7 ratio imaging [3] |
| --- | --- | --- | --- | --- | --- | --- | --- | --- | --- | --- | --- | --- | --- | --- | --- | --- |
| MMP-9 | decreased Cy7 re-emission by ˜4 fold | after (red dashed curve)>95% complete cleavage with MMP-9 | increased Cy5 emission by ˜10 fold | net 40-fold increase in the ratio of 670/780 nm emissions | 87% of the peptide had been cleaved | the Cy5 peak increases about 7 fold | All three components (intact uncleaved peptide, r9 and e9 fragments) are well separated and can be seen as distinct bands in the gel | – | – | – | – | – | – | – | – | – |
| factor Xa | – | – | – | – | – | – | – | not cleaved by any of the pro-coagulation enzymes | 6200 M⁻¹ s⁻¹ | no detectable activity towards RACPPPPRSFL | – | – | – | – | – | – |
| thrombin | – | – | – | – | – | – | – | not cleaved by any of the pro-coagulation enzymes | kcat/km=1.2×10^4 M^-1s^-1 | – | cleaved by thrombin in a time dependent manner | 34 fold change in Cy5/Cy7 emission ratio | 3.8 fold decrease in Cy7 re-emission | 8.8 fold increase in Cy5 emission | 7300 | cleaved by thrombin in a time dependent manner and that RACPPPPRSFL(10) is selective for thrombin |
